This is an account of results in patent US20260168005A1, “DRUG SCREENING METHOD BASED ON DRUG DISCOVERY CONCEPT OF CANCER CELL PROLIFERATION INHIBITION INDUCED BY DISRUPTION OF CHROMOSOME REGULATION DUE TO PLK1 KINASE ACTIVATION” (JAPANESE FOUNDATION FOR CANCER RESEARCH, priority 2022, published 2026).

No end group written: not given here.

In experiment [1] the target is endogenous Plk1 (UniProt P53350). Briefly: cell-based or functional assay.
The target in experiment [2] is recombinant GST-His-Plk1 (Homo sapiens, UniProt P53350). Briefly: Intramolecular TR-FRET assay of kinase domain / Polo-Box domain association. The experiment is classed as binding. Conditions: Plk1 0 to 100 nM; pPON 0 to 1000 µM, PxVXL 25 to 100 µM; room temperature 1 hour, then GST-Tb and His-d2 3 hours (FIG. 7B). An excerpt: In other words, it is an assay system that reflects the folding state within Plk1 molecules, and a screening system for drug discovery sees according to the mechanism of action of “inhibiting the suppressive association within the molecules to lead to kinase activation”. A fluorescence resonance energy transfer (FRET) assay system that detects the interaction of PBD that suppressively associates with the Plk1 kinase domain was constructed. The design was made as follows: a full-length recombinant protein was purified, and a donor (GST-Tb) were placed in the kinase domain and an acceptor (His-d2) in the PBD using antibodies that act as luminescent agents based on the conformational information so that the FRET reaction would efficiently occur.
recombinant GST-His-Plk1, sequence (P53350 whole entry, the tested form may be a part): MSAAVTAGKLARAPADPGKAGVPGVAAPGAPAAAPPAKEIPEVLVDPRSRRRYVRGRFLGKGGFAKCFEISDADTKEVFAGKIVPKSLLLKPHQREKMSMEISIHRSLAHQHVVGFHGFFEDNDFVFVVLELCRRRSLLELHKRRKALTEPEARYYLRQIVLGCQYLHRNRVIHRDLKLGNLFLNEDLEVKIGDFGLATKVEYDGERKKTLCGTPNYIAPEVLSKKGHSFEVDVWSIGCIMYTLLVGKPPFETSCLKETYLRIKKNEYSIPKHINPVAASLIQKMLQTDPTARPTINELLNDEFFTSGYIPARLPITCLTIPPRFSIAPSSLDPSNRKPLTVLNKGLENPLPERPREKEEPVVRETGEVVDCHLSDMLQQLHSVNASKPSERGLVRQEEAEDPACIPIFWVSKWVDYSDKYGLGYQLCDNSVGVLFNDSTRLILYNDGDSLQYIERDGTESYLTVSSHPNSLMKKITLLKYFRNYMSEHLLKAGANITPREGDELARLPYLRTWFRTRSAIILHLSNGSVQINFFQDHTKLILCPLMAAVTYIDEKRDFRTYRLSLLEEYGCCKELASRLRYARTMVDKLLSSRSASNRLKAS
A recombinant Plk1 in which a GST tag was added into a pFastBacl vector at the N-terminus, and a 6His-tag was inserted in the vicinity of the N-terminus of PB1 (Polo-Box 1) was constructed (left in FIG. 7A, GST-His-Plk1). […]
Intramolecular FRET analysis was performed using the recombinant GST-His-Plk1. […] Then, GST-Tb and His-d2 (PerkinElmer, Inc., MAb Anti-GST-Tb cryptate, MAb Anti-6HIS-d2) were added thereto to react at room temperature for 3 hours, and the emission signals were measured using the time-resolved fluorescence-fluorescence resonance energy transfer method (TR-FRET). […]

Experiment [3] relates to HeLa cells. Put plainly: Cell death on expression of GFP-tagged PON peptide, live cell imaging. Conditions: plasmid transfection, GFP tag at N-terminus, live cell imaging (FIG. 6B). The experiment is classed as cell-based. An excerpt: (§1) Plasmids that express WT ([…]: SEQ ID NO: 1) and a TA mutant (Plk1 unbound, […]: SEQ ID NO: 2) of the PON peptide with a GFP tag added to the N-terminus were introduced into HeLa cells by a plasmid transfection method with FuGENE HD transfection Reagent (Promega Corporation) and into RPE1 cells by a nucleofection method with 4D nucleofector (Lonza Group Ltd.). Since the PON peptide binds to the PBD upon phosphorylation by Cdk1, a TA mutant of the PON peptide in which the phosphorylation site was substituted with Ala was used as a negative control.
(§2) Observation was performed using live cell imaging, and the number of cells that underwent cell death in cells with GFP expression observed was counted. […] In other words, suppression of the association of the PBD and KD of endogenous Plk1 can cause significant cell growth suppression to be induced in cancer cells (FIG. 6B). From the fact that induction of cell death due to Plk1 activation is not observed in normal cells, compounds that activate Plk1 are expected to exert an effect in a cancer cell-specific manner.

Experiment [4] deals with RPE1 cells. The experiment is described as above. Conditions: RPE1 normal diploid cells, nucleofection, GFP tag at N-terminus, live cell imaging (FIG. 6B). Format: cell-based.
Text: as §1, §2

Experiment [5] has as its target recombinant GST-His-Plk1 (WT) (Homo sapiens, UniProt P53350). Put plainly: ADP-Glo kinase assay with dephosphorylated casein substrate. Format: biochemical. To be noted: pPON 0 to 1000 M; 0.5 μg dephosphorylated casein; 5 µM ATP; room temperature 1 hour (FIG. 10A). As to the method: Further, the kinase activity of GST-His-Plk1 was evaluated by a kinase assay. First, it was confirmed that the kinase activity of the recombinant GST-His-Plk1, which contained a His-tag for FRET in the molecule, was equivalent to that of the one without the tag. Next, GST-His-Plk1 was used and mixed with 0.5 μg of dephosphorylated casein as a phosphorylation substrate in the presence of pPON ([…]), a kinase reaction was performed at room temperature for 1 hour in the presence of 5 µM of ATP, and a kinase reaction was performed between the recombinant GST-His-Plk1 (WT) (0 to 3.36 μM) and the dephosphorylated casein. Using an ADP-Glo (trademark) kinase assay kit (Promega Corporation), the kinase activity was measured by an ADP-Glo method, which quantifies in the […]. […] Also, the results of the kinase assays using the S137D/T210D mutant and S137D mutant also indicate that high kinase activity can be obtained when the intramolecular association is inhibited (FIG. 10B). Accordingly, the kinase assay can be used as a screening method that detects the association between the kinase domain and PBD of Plk1, and suppression of the association can be detected. Also, in the case of using the kinase assay for screening, a construct in which a kinase domain and PBD are separated can also be used.
(In general: ADP-Glo first removes unused ATP, then detects ADP through luciferase.)

Experiment [6] deals with T1, recombinant GST-His-Plk1 (WT) (UniProt P53350 2-603, limits assumed).
T1 construct: mature; Made in the Baculovirus/Sf9 system and purified on Glutathione Sepharose; also called Plk1 recombinant protein; wild-type GST-His-Plk1; not shown: N-terminal GST tag
T1 sequence (P53350 2-603 limits assumed): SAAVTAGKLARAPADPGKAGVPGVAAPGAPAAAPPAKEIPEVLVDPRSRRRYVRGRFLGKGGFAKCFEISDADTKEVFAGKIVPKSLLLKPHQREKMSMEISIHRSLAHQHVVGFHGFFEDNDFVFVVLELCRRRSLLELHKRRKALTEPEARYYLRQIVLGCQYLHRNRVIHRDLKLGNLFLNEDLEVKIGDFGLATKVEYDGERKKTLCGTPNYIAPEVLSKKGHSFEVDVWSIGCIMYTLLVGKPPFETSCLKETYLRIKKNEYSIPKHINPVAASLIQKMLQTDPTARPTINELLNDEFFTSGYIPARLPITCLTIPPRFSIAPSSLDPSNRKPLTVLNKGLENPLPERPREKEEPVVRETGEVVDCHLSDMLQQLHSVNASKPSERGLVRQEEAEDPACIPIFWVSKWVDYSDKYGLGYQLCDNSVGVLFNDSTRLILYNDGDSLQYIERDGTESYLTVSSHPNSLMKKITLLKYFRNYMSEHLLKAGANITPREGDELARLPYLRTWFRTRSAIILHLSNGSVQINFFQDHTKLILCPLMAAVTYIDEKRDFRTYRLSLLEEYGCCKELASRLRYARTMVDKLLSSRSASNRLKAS
Briefly: intramolecular TR-FRET on GST-His-Plk1 (indirect read-out). For orientation: In TR-FRET formats the signal depends on donor and acceptor labels being close together.

recombinant GST-His-Plk1 (WT) (Homo sapiens, UniProt P53350), sequence (P53350 whole entry): as the sequence (P53350 whole entry, the tested form may be a part) above
endogenous Plk1, sequence (P53350 2-603 limits assumed): as the sequence (P53350 2-603 limits assumed) above

“PON peptide WT with a GFP tag added to the N-terminus”: the percentage of cell death in GFP-expressing HeLa cells (live cell imaging) in experiment [1] was more than 70%.

As to “NHTQCQLVPVVEIGISERON (NHTQCQLVPVVEIGISERQN) [PxVXL, reference compound]”, the “FRET signal (His-d2 relative to GST-Tb)” value in experiment [2] is “this effect was not observed”.

As for “ESCFTNAAFSSAPKK [TA mutant, reference compound]”, the “death of cells (percentage of GFP-expressing cells that underwent cell death)” value in experiment [3] is on record as “about 30%”.

For ESCFTNAAFSSTPKK [PON peptide], the “increase in cell death” value in experiment [4] was “no increase in cell death was observed”. In addition, the “death of cells (percentage of GFP-expressing cells that underwent cell death)” value in experiment [3] is not below 70%.

As to “pPON: pPON peptide (SEQ ID NO: 1) reacted with recombinant Plk1 in FRET and kinase assays (ESCFTNAAFSSTPKK; also: phosphorylated, position not given here)”, the “FRET signal (His-d2 relative to GST-Tb)” value in experiment [2] is on record as “FRET signals were reproducibly observed to gradually decrease”. In addition, in experiment [5], the kinase activity entry is “kinase activity increased depending on the amount of pPON added”.

B1: PxVXL peptide (negative control peptide that does not bind to PLK1) (peptide)
peptide: NHTQCQLVPVVEIGISERQN
notes: Printed in the text as NHTQCQLVPVVEIGISERON; The 'O' may be a printing error
On to B1, for which, in experiment [6], the binding result is “no binding (tested: 25 to 100 UM)”.
